Reference: PMC7823470, “Arabidopsis Plant Natriuretic Peptide Is a Novel Interactor of Rubisco Activase” (Life, 2020)
“Also recorded” adds a separate entry of the source. Bridge positions count the residues as written; N and C are the ends. Ends that are not written are not given here. Peptide text beside a SMILES is read from it. * marks the point of attachment. Biotin = O=C1N[C@H]2[C@H](CS[C@H]2CCCCC(=O)*)N1

Legend:
[1] = molecular target: T1, recombinant RCA (rRCA) (Arabidopsis thaliana, UniProt P10896); assay: biochemical; format: binding
T1 construct: made in house; host or cells: E. coli BL21 (DE3) One Shot
Protocol: (§1) SPR experiments were performed at 20 °C on a Biacore T100 instrument (GE Healthcare LifeSciences) with the use of Series S CM5 […] sensor chips as previously described. Data were acquired with Biacore T100 control software (version 2.0.2, GE Healthcare LifeSciences, Chicago, IL, USA). Kinetic analyses were performed at the flow of 100 μL min^−1 with pAtPNP-A (at 3.78 μM and consecutive two-fold dilutions; 11 injections included) […], whereas recombinant His-tagged RCA was used as […] immobilized on the active surface of the series S CM5 sensor chip with amine coupling kit. The surface was regenerated with glycine solution, pH 2.0 (GE Healthcare LifeSciences). The final sensorgram was generated with Scrubber (BioLogic Software Pty Ltd., Campbell, Australia).
In both analyses the ligand was immobilized at the same levels, analytes were injected at the same concentration and conditions of runs kept constant.

[2] = molecular target: T2, recombinant RCA (rRCA) (Arabidopsis thaliana, UniProt P10896); assay: SPR, rAtPNP-A analyte over immobilized rRCA (CM5 chip); format: binding; conditions: for SPR binding to rRCA: rRCA amine-coupled on CM5 chip, rAtPNP-A as analyte, 20 °C, Biacore T100
T2 construct: made in house; host or cells: E. coli BL21 (DE3) One Shot
T2 sequence (P10896 whole entry, looked up): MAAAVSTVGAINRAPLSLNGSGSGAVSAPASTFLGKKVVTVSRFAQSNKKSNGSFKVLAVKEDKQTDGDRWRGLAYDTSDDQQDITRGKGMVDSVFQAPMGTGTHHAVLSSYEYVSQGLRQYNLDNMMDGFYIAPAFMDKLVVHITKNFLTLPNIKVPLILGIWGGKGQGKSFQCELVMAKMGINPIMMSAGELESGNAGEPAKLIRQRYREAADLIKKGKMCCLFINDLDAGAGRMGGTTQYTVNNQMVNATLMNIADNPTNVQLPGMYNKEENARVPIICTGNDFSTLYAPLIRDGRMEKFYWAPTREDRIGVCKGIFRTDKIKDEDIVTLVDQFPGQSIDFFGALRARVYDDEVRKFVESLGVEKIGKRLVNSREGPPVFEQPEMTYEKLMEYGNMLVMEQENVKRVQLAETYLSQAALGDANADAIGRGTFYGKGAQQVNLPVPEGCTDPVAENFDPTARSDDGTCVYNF
Protocol: as §1
Figure 2 AtPNP-A directly interacts with Arabidopsis RCA in vitro. (a) Molecular docking of AtPNP-A and RCA monomer. Surface model depicts predicted docking of AtPNP-A (blue), with its active region (cyan), and RCA (tan). The structure of AtPNP-A was predicted using the iterative threading assembly refinement (I-TASSER; version 5.1) method, while the 4W5W crystal structure of A. thaliana RCA [33] was derived from RCSB PDB. Protein—protein docking was performed using ClusPro). The models were analyzed and visualized using UCSF Chimera (version 1.10.2). (b) Recombinant protein preparations used in SPR analyses. (c) Exemplar sensorgrams depicting referenced binding response of the recombinant RCA and AtPNP-A proteins.

[3] = tested on: A. thaliana (Col-0) mesophyll cell protoplasts; assay: Mesophyll cell protoplast (MCP) volume assay; format: cell-based, Arabidopsis thaliana; conditions: MCPs in 0.4 M mannitol, 20 min; 100 nM peptide or 1 μg mL^−1 rAtPNP-A; confocal microscopy, n = 50
Description: Figure 1 Biologically active peptide containing the active region of AtPNP-A binds to RCA. (a) Schematics showing domain organization of AtPNP-A and the amino acid sequence of N-terminally biotinylated peptides used in the affinity-based experiments. pAtPNP-A—a peptide containing the active site of AtPNP-A; pScr—the corresponding scrambled peptide; SP—signal peptide. Cysteine residues forming a disulfide bond are underlined. (b) Assaying biological activity of the pAtPNP-A and purified recombinant AtPNP-A (rAtPNP-A). A. thaliana (Col-0) mesophyll cell protoplasts suspended in 0.4 M mannitol were treated with either water, or 100 nM pScr (negative control), or with 100 nM pAtPNP-A, or with 1 μg mL^−1 of rAtPNP-A protein for 20 min at room temperature. In each treatment, 50 randomly selected protoplasts with diameter >20 μm were included in quantitative analysis (scale bar = 20 μm). Protoplast volume was measured, and the data obtained from an exemplar experiment are plotted. […]
Biological activity of the synthetic peptides was verified in mesophyll cell protoplast (MCP) volume assay. […] Data are expressed as mean ± SD, and statistical analyses of one-way ANOVA followed by Tukey-Kramer multiple comparison test were performed using Prism 8.0 (GraphPad Software, San Diego, CA, USA).

[4] = molecular target: T3, purified recombinant N-terminally His-tagged rubisco activase (rRCA) (Arabidopsis thaliana, UniProt P10896 59-474); assay: SPR; kinetic analysis: His-tagged rRCA immobilised by amine coupling on a Series S CM5 chip, pAtPNP-A injected at 3.78 μM and consecutive two-fold dilutions (11 injections), flow 100 μL/min, regeneration with glycine pH 2.0; Biacore T100, 20 °C; conditions: both partners purified
T3 construct: Rubisco activase (RCA), A. thaliana, At2g39730; also called recombinant RCA; source: E. coli BL21 (DE3) One Shot, purified (Ni-NTA beads, HisTrap HP column); not shown: His6, N-terminal, kept
T3 sequence (looked up): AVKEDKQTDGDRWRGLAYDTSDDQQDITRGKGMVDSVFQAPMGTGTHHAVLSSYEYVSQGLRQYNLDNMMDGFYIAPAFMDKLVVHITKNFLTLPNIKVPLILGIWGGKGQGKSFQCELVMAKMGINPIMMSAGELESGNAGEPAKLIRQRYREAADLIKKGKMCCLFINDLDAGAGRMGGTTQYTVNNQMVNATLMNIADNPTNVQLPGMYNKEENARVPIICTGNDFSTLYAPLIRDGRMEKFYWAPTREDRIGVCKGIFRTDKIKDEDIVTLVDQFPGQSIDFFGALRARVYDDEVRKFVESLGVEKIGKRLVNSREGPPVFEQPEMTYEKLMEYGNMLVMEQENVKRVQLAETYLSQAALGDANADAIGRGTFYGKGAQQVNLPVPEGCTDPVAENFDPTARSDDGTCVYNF

[5] = molecular target: T3, purified recombinant N-terminally …; assay: as above; conditions: both partners purified; remark: listed apart in the source

CC(C)C[C@@H]1NC(=O)[C@H](CC(N)=O)NC(=O)[C@H](CC(N)=O)NC(=O)[C@H](CCCCN)NC(=O)[C@H](C(C)C)NC(=O)CNC(=O)[C@H](C(C)C)NC(=O)[C@H](C(C)C)NC(=O)[C@H](CC(C)C)NC(=O)[C@H]([C@@H](C)O)NC(=O)[C@H](CCC(=O)O)NC(=O)[C@H](CCCNC(=N)N)NC(=O)[C@H](CCC(N)=O)NC(=O)[C@H]([C@@H](C)O)NC(=O)CNC(=O)[C@H](Cc2ccc(O)cc2)NC(=O)[C@@H](NC(=O)[C@H](C)NC(=O)[C@H](CO)NC(=O)[C@H](CCCNC(=N)N)NC(=O)[C@@H](NC(=O)[C@H](Cc2ccc(O)cc2)NC(=O)[C@@H]2CCCN2C(=O)[C@@H]2CCCN2C(=O)[C@H](CC(=O)O)NC(=O)[C@H](Cc2ccc(O)cc2)NC(=O)[C@H](Cc2ccc(O)cc2)NC(=O)[C@@H](NC(=O)[C@H](C)NC(=O)CCCC[C@@H]2SC[C@@H]3NC(=O)N[C@@H]32)C(C)C)[C@@H](C)O)CSSC[C@@H](C(=O)NCC(=O)N[C@@H](CCCNC(=N)N)C(=O)N[C@@H](CCCNC(=N)N)C(=O)N[C@@H](Cc2ccc(O)cc2)C(=O)O)NC(=O)[C@H](C)NC(=O)[C@H](CCCNC(=N)N)NC(=O)CNC(=O)[C@H](CC(N)=O)NC(=O)[C@H](CCC(N)=O)NC(=O)[C@H](Cc2c[nH]c3ccccc23)NC1=O [pAtPNP-A] (Biotin-AVYYDPPYTRSACYGTQRETLVVGVKNNLWQNGRACGRRY-OH; disulfide 13-36)
dissociation constant, range in words [1]: sub-micromolar range; also recorded: nanomolar range | kon ([1]; read-out: ka (±SE), association rate constant): 16300 M⁻¹ s⁻¹ | koff ([1]; read-out: kd (±SE), dissociation rate constant): 0.000852 s⁻¹

B1: rAtPNP-A: purified N-terminally His-tagged AtPNP-A protein (protein)
chain: AQGKAVYYDPPYTRSACYGTQRETLVVGVKNNLWQNGRACGRRYRVRCIGATYNFDRACTGRTVDVKVVDFCREPCNGDLNLSRDAFRVIANTDAGNIRVVYTPI
modifications: left off: His6, N-terminal, kept
notes: purified N-terminally His-tagged AtPNP-A protein
SPR binding to RCA (abstract, in words) ([2]; full-length recombinant AtPNP-A, SPR): bind specifically to RCA | SPR binding to rRCA [2]: bound to the rRCA protein immobilized on the active surface | SPR binding to rRCA ([2]; listed as recombinant AtPNP-A): confirmed by us in vitro | Effect on protoplast volume [3]: protoplast volume increase

B2: pAtPNP-A, N-terminally biotinylated AtPNP-A(33–66) peptide containing the active region of AtPNP-A (peptide, UniProt Q9ZV52 33-66, looked up)
peptide: Biotin-YDPPYTRSACYGTQRETLVVGVKNNLWQNGRACG
modifications: disulfide 10-33 (inferred)
notes: AtPNP-A (plant natriuretic peptide A), A. thaliana, At2g18660, residues 33-66 (active region); Peptides were bought with or without the N-terminal biotin tag; also called biologically active fragment of AtPNP-A; source: synthetic peptide, bought: GenScript (purity at least 95%, HPLC)
Kd [4]: 53 nM | Kd [5]: 52.3 nM
